According to patent publication US20230330251A1, “METHODS FOR TREATING CANCERS WITH ANTIBODY DRUG CONJUGATES (ADC) THAT BIND TO 191P4D12 PROTEINS” (AGENSYS, INC., priority 2020, published 2023):

Tested on: subjects with previously treated locally advanced or metastatic urothelial cancer
Test: EV-301: safety, adverse events (safety analysis set, NCI-CTCAE v4.03, MedDRA)
[1] = Any Grade, N = 296 EV, 291 chemotherapy
[2] = Baseline PN, n = 55 EV, 58 chemotherapy
[3] = Grade 1, N = 296 EV, 291 chemotherapy
[4] = Grade 2, N = 296 EV, 291 chemotherapy
[5] = Grade 3, N = 296 EV, 291 chemotherapy
[6] = Grade 4, N = 296 EV, 291 chemotherapy
[7] = Grade Any, N = 296 EV, 291 chemotherapy

Description: The Safety Analysis Set (SAF) will be used for the safety analysis. All subjects who are randomized and received study drug will be included in the SAF. The frequency of AEs and the serious AEs will be summarized by MedDRA system organ class and preferred term. In addition, summary statistics will be provided for the following safety parameters: • Laboratory values • Vital sign measurements • ECOG PS
An AE is any untoward medical occurrence in a subject, temporally associated with the use of a medicinal product, whether or not considered related to the medicinal product. An AE can therefore be any unfavorable and unintended sign (including an abnormal laboratory finding), symptom, or disease (new or exacerbated) temporally associated with the use of a medicinal product.
AEs, including abnormal clinical laboratory values, will be graded using the NCI-CTCAE guidelines (Version 4.03).
The safety analysis set (SAF), which consists of all subjects who received any amount of study drug, will be used for safety analyses.
SAF was used to perform all safety analysis. All treated subjects were analyzed according to the treatment they received.
The number and percentage of AEs by severity were also summarized. All AEs were listed.
A study drug-related TEAE is defined as any TEAE with a causal relationship of YES by the investigator. AEs of interest as classified by customized MedDRA queries and/or standard MedDRA queries were also summarized.

For enfortumab vedotin, the “Treatment-related adverse events of grade 3 or higher” value (% of patients) was 51.4%, the “Treatment-related adverse events resulting in dose reduction” value (% of patients) was 32.4% and the “Treatment-related adverse events resulting in interruption of treatment” value (% of patients) was 51.0%. For the same substance, the “Treatment-related adverse events resulting in withdrawal of treatment” value (% of patients) was 13.5%, the “grade 3 or higher treatment-related decreased neutrophil count” value (% of patients) was 6.1% and the “grade 3 or higher treatment-related fatigue” value (% of patients) was 6.4%. For the same substance, the “grade 3 or higher treatment-related maculopapular rash” value (% of patients) was 7.4%, the “Grade ≥3 TRAE: Decreased neutrophil count, %” value (All, N = 296 EV, 291 SC) was 6.1% and the “Grade ≥3 TRAE: Decreased white blood cell count, %” value (All, N = 296 EV, 291 SC) was 1.4%. The “Grade ≥3 TRAE: Fatigue, %” value (All, N = 296 EV, 291 SC) was 6.4%, the “Grade ≥3 TRAE: Febrile neutropenia, %” value (All, N = 296 EV, 291 SC) was 0.7% and the “Grade ≥3 TRAE: Maculopapular rash, %” value (All, N = 296 EV, 291 SC) was 7.4%. The “Grade ≥3 TRAE: Neutropenia, %” value (All, N = 296 EV, 291 SC) was 4.7%, the “TRAE: Alopecia, Number of patients” value [1] was 134 and the “TRAE: Alopecia, percent” value [1] was “(45.3) percent”. For the same substance, the “TRAE: Anemia, Number of patients” value [1] was 34, the “TRAE: Anemia, percent” value [1] was “(11.5) percent” and the “TRAE: Any adverse event, Number of patients” value [1] was 278. The “TRAE: Any adverse event, percent” value [1] was “(93.9) percent”, the “TRAE: Decreased appetite, Number of patients” value [1] was 91 and the “TRAE: Decreased appetite, percent” value [1] was “(30.7) percent”. The “TRAE: Decreased neutrophil count, Number of patients” value [1] was 30, the “TRAE: Decreased neutrophil count, percent” value [1] was “(10.1) percent” and the “TRAE: Decreased white-cell count, Number of patients” value [1] was 16. For the same substance, the “TRAE: Decreased white-cell count, percent” value [1] was “(5.4) percent”, the “TRAE: Diarrhea, Number of patients” value [1] was 72 and the “TRAE: Diarrhea, percent” value [1] was “(24.3) percent”. For the same substance, the “TRAE: Dysgeusia, Number of patients” value [1] was 72, the “TRAE: Dysgeusia, percent” value [1] was “(24.3) percent” and the “TRAE: Fatigue, Number of patients” value [1] was 92. For the same substance, the “TRAE: Fatigue, percent” value [1] was “(31.1) percent”, the “TRAE: Febrile neutropenia, Number of patients” value [1] was 2 and the “TRAE: Febrile neutropenia, percent” value [1] was “(0.7) percent”. For the same substance, the “TRAE: Maculopapular rash, Number of patients” value [1] was 48, the “TRAE: Maculopapular rash, percent” value [1] was “(16.2) percent” and the “TRAE: Nausea, Number of patients” value [1] was 67. The “TRAE: Nausea, percent” value [1] was “(22.6) percent”, the “TRAE: Neutropenia, Number of patients” value [1] was 20 and the “TRAE: Neutropenia, percent” value [1] was “(6.8) percent”. For the same substance, the “TRAE: Peripheral sensory neuropathy, Number of patients” value [1] was 100, the “TRAE: Peripheral sensory neuropathy, percent” value [1] was “(33.8) percent” and the “TRAE: Pruritus, percent” value [1] was “(32.1) percent”. The “Treatment-emergent Hyperglycemia, %” value (Baseline BMI <30 kg/m^2, n = 255 EV, 244 chemotherapy) was 9.0%, the “Treatment-emergent Hyperglycemia, %” value (Baseline BMI ≥30 kg/m^2, n = 41 EV, 46 chemotherapy) was 29.3% and the “Treatment-emergent Hyperglycemia, %” value [2] was 38.2%. The “Treatment-emergent Peripheral motor neuropathy, %” value [2] was 20.0%, the “Treatment-emergent Peripheral neuropathy, %” value [2] was 49.1% and the “Treatment-emergent Peripheral sensory neuropathy, %” value [2] was 40.0%. For the same substance, the “TRAE of special interest: Blurred vision, %” value (“TRAE … Blurred vision, %” below) [3] was 3.4%, the “TRAE of special interest: Corneal disorders, %” value [3] was 0.7% and the “TRAE of special interest: Dry eye, %” value [3] was 11.5%. The “TRAE of special interest: Extravasation site reactions, %” value (from here on “TRAE … Extravasation site reactions, %”) [3] was 0.3%, the “TRAE of special interest: Hyperglycemia, %” value (“TRAE … Hyperglycemia, %” for short) [3] was 1.0% and the “TRAE of special interest: Infusion-related reactions, %” value (from here on “TRAE … Infusion-related reactions, %”) [3] was 3.7%. For the same substance, the “TRAE of special interest: Infusion-related reactions, Local events, %” value [3] was 0.3%, the “TRAE of special interest: Infusion-related reactions, Systemic events, %” value (shortened to “TRAE of special interest … Systemic events, %”) [3] was 3.4% and the “TRAE of special interest: Ocular disorders, %” value (“TRAE … Ocular disorders, %” for short) [3] was 13.5%. For the same substance, the “TRAE of special interest: Peripheral neuropathy, %” value (“TRAE … Peripheral neuropathy, %” for short) [3] was 14.9%, the “TRAE of special interest: Peripheral neuropathy, Motor events, %” value (from here on “TRAE of special interest … Motor events, %”) [3] was 1.7% and the “TRAE of special interest: Peripheral neuropathy, Sensory events, %” value (shortened to “TRAE of special interest … Sensory events, %”) [3] was 14.5%. For the same substance, the “TRAE of special interest: Rash, %” value [3] was 13.9%, the “TRAE of special interest: Severe cutaneous adverse reaction, %” value (from here on “TRAE … Severe cutaneous adverse reaction, %”) [3] was 6.8% and the “TRAE of special interest: Skin reactions, %” value (from here on “TRAE … Skin reactions, %”) [3] was 13.9%. The “TRAE … Blurred vision, %” value [4] was 0.7%, the “TRAE of special interest: Dry eye, %” value [4] was 3.7% and the “TRAE … Extravasation site reactions, %” value [4] was 0.7%. The “TRAE … Hyperglycemia, %” value [4] was 1.4%, the “TRAE of special interest: Infusion site reactions, %” value [4] was 0.7% and the “TRAE … Infusion-related reactions, %” value [4] was 3.7%. The “TRAE of special interest: Infusion-related reactions, Local events, %” value [4] was 0.7%, the “TRAE of special interest … Systemic events, %” value [4] was 3.0% and the “TRAE … Ocular disorders, %” value [4] was 4.4%. The “TRAE … Peripheral neuropathy, %” value [4] was 26.4%, the “TRAE of special interest … Motor events, %” value [4] was 4.1% and the “TRAE of special interest … Sensory events, %” value [4] was 25.7%. The “TRAE of special interest: Rash, %” value [4] was 15.5%, the “TRAE … Severe cutaneous adverse reaction, %” value [4] was 8.4% and the “TRAE … Skin reactions, %” value [4] was 18.6%. For the same substance, the “TRAE of special interest: Dry eye, %” value [5] was 0.7%, the “TRAE … Hyperglycemia, %” value [5] was 3.7% and the “TRAE … Infusion-related reactions, %” value [5] was 1.4%. The “TRAE of special interest … Systemic events, %” value [5] was 1.4%, the “TRAE … Ocular disorders, %” value [5] was 0.7% and the “TRAE … Peripheral neuropathy, %” value [5] was 5.1%. For the same substance, the “TRAE of special interest … Motor events, %” value [5] was 1.7%, the “TRAE of special interest … Sensory events, %” value [5] was 3.7% and the “TRAE of special interest: Rash, %” value [5] was 14.2%. The “TRAE … Severe cutaneous adverse reaction, %” value [5] was 4.7%, the “TRAE … Skin reactions, %” value [5] was 14.2% and the “TRAE of special interest: Rash, %” value [6] was 0.3%. For the same substance, the “TRAE … Severe cutaneous adverse reaction, %” value [6] was 0.3%, the “TRAE … Skin reactions, %” value [6] was 0.3% and the “TRAE … Hyperglycemia, %” value (Grade 5, N = 296 EV, 291 chemotherapy) was 0.3%. The “TRAE … Blurred vision, %” value [7] was 4.1%, the “TRAE of special interest: Corneal disorders, %” value [7] was 0.7% and the “TRAE of special interest: Dry eye, %” value [7] was 15.9%. The “TRAE … Extravasation site reactions, %” value [7] was 1.0%, the “TRAE … Hyperglycemia, %” value [7] was 6.4% and the “TRAE of special interest: Infusion site reactions, %” value [7] was 0.7%.
